# Data: patent publication US20220088115A1, “PHARMACEUTICAL COMPOSITION, COMPRISING INHIBITORY PEPTIDE AGAINST FAS SIGNALING, FOR PREVENTION OR TREATMENT OF OBESITY, FATTY LIVER, OR STEATOHEPATITIS” (SIGNET BIOTECH INC., priority 2018, published 2022)
# Columns and labels:
# [1] = Delivery of fluorescently labeled peptide to organs of normal body weight mice; format: in vivo; settings: intravenous (IV) or subcutaneous (SC) injection, 12 hours
# [2] = system: obesity model mice; assay: TUNEL staining of dead cells, obesity model mice, intravenous FBP-8; format: in vivo, C57BL/6 mice; settings: intravenous twice a week for 5 weeks
# Method: (§1) All animal experiments performed for the present invention were approved by the Institutional Animal Care and Use Committee of Hanyang University. […] Thereafter, depending on the experimental group, 60 μg/one time of FBP8 were administered by intravenous injection twice a week for a total of 5 weeks (FIG. 13), or FBP7 was administered by subcutaneous injection twice a day.
# Furthermore, a terminal deoxynucleotidyl transferase dUTP nick end labeling (TUNEL) analysis for each tissue was performed with an in situ cell death detection kit (Millipore, USA). Thereafter, the fluorescence signals were analyzed under a TCS-SP5 confocal microscope by staining the nuclei with Hoechst 33342, and the fluorescence signals of each cell were analyzed with the Image J program.
# Obesity model mice were produced by feeding normal mice a high fat diet for 8 weeks, and FBP-8 was administered by intravenous injection twice a week for a total of 5 weeks (FIG. 13). After five weeks, the obesity model mice were sacrificed to isolate white adipose tissues and liver tissues and analyze the proportion of dead cells by TUNEL staining.
# [3] = system: obesity model mice; assay: Crown-like structure (CLS) in white adipose tissues, obesity model mice, intravenous FBP-8; format: in vivo, C57BL/6 mice; settings: compared to negative control (CtrFBP)
# Method: as §1
# (§2) Liver tissue and white adipose tissue sections were stained with hematoxylin & eosin and then histologically analyzed under an optical microscope.
# [4] = system: 3T3L1 cell line; assay: Free fatty acid (FFA) release into 3T3L1 cell culture solution; format: cell-based, murine; settings: 3T3L1 treated with FasL and FBP-8
# Method: The 3T3L1 cell line was cultured in a DMEM culture medium containing 10% FBS, 1% penicillin, 1% streptomycin, and 25 mM glucose. The 3T3L1 cell line was aliquoted into the above DMEM culture solution at a concentration of 2×10^5 cells/ml to induce adipocyte maturation for 3 days, and then replaced with a culture solution containing insulin to induce adipocyte maturation again for 3 days. Thereafter, the 3T3L1 cell line was further cultured in the above DMEM culture solution for 2 days to achieve complete maturation of adipocytes.
# [5] = molecular target: T1, Fas (Mus musculus, UniProt P25446); assay: Binding of fluorescently labeled peptide to Fas in liver and white adipose tissue sections of HFD mice; settings: sections from high fat diet (HFD) group
# T1 construct: from tissue; host or cells: liver and white adipose tissue sections of high-fat-diet C57BL/6 mice
# T1 sequence (P25446 22-327): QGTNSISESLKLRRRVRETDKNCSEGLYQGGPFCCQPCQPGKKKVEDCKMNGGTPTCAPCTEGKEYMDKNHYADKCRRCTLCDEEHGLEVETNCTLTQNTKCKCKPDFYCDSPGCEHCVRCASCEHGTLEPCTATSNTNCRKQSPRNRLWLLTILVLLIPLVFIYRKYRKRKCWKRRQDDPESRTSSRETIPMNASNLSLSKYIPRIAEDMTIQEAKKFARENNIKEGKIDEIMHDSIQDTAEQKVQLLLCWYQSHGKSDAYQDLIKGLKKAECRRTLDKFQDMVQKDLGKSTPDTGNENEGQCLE
# Method: After the animal experiment was completed, mice were sacrificed to isolate liver tissues and white adipose tissues and prepare tissue sections. The prepared liver tissue and white adipose tissue sections were treated with an antigen retrieval buffer at 95° C. for 25 minutes and then cooled at room temperature. Thereafter, the tissue sections were treated with Tris Based Saline+Tween20 (TBST) containing 1% bovine serum albumin (BSA), 10% goat serum and 0.05% Tween 20 to undergo a blocking process, and were reacted with a Fas receptor-specific primary antibody at 4° C. for 18 hours. Thereafter, tissue sections were washed with TBST and reacted with a FITC-bound secondary antibody at room temperature for 2 hours.
# In addition, in order to examine the tissue-binding ability of the peptide, the peptide to which Alexa 488 was bound was reacted with the primary antibody at 4° C. for 18 hours. The nuclei were stained with Hoechst 33342 (GE Healthcare), washed with TBST, and then confirmed.
# The fluorescence signal of each tissue section was analyzed under a TCS-SP5 confocal microscope (Leica, Germany).
# [6] = system: obesity model mice; assay: Liver morphology, weight and histological analysis, obesity model mice, intravenous FBP-8; format: in vivo, C57BL/6 mice
# Method: as §1, §2
# [7] = molecular target: T2, Fas (Homo sapiens, UniProt P25445); assay: Binding of Alexa647-labeled peptides to Fas-expressing Jurkat cell line; settings: Jurkat cell line always expressing Fas; Alexa647-labeled peptide
# T2 construct: A Jurkat cell line, in which Fas is always expressed; host or cells: Jurkat
# T2 sequence (P25445 26-335): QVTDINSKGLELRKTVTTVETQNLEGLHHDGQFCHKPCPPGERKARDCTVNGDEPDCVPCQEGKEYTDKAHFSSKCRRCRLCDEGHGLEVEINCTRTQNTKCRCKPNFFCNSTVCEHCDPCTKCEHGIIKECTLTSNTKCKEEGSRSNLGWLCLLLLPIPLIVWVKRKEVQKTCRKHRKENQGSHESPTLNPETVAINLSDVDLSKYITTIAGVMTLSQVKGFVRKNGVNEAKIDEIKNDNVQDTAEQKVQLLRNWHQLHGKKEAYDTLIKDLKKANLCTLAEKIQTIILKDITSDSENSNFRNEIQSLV
# Method: A Jurkat cell line which is a human blood cancer cell line and a 3T3L1 cell line which is a murine adipocyte were purchased from ATCC (USA), and the Jurkat cell line was cultured in an RPMI culture medium containing 10% fetal bovine serum (FBS), 1% penicillin, 1% streptomycin, and 25 mM glucose.
# A Jurkat cell line, in which Fas is always expressed, was treated with an FITC-labeled Fas antibody and treated with Alexa647-labeled FBP-8, FBP-A, FBP-7 or control peptide (YCNSTVCY; CtrFBP).
# [8] = Delivery of fluorescently labeled peptide to tissues of obesity model mice (HFD); format: in vivo, C57BL/6 mice
# Method: as §1
# 100 μg of an Alexa 647-bound peptide was administered by intravenous injection into obesity model mice, and after 12, 24, and 48 hours, the tissues were isolated, and the fluorescence signals in each tissue were analyzed with an image station fluorescence analyzer (Carestream). After the fluorescence signal analysis, the relative fluorescence intensity of each tissue was compared using an ImageJ program provided by NIH.
# In addition, 100 μg of Alexa 488-bound FBP was administered by intravenous injection into obesity model mice to confirm whether cell units of peptides were delivered to liver tissues, and frozen tissue sections were produced by isolating the liver tissues after 12, 24, and 48 hours. Thereafter, the nuclei were stained with Hoechst 33342, and the fluorescence signals were analyzed under a TCS-SP5 confocal microscope.
# Based on the Fas-specific binding ability of FBP-8 confirmed by the experiments, it was confirmed whether FBP-8 could be specifically delivered to liver tissues or adipose tissues when systemically delivered by intravenous injection or subcutaneous injection. Fluorescently labeled FBP-8 was injected by intravenous injection or subcutaneous injection into obesity model mice in the high fat diet group, and after 24 and 48 hours, the fluorescence distribution was investigated by isolating each organ.
# [9] = compared to negative control (CtrFBP)
# [10] = intravenous, liver tissue sections
sequence,measurement,setting,value
YCDEHFCY (Fas binding peptide-8 (FBP-8)),fluorescence signal in the liver tissue of normal mice,[1],a significant fluorescence signal could not be observed
same,proportion of dead cells in liver tissue (TUNEL),[2],9±2.37%
same,proportion of dead cells in white adipose tissue (TUNEL),[2],31+2.37%
same,crown-like structure (CLS) in white adipose tissues,[3],remarkably reduced
same,extracellular release of fatty acids (FFA),[4],significantly inhibited
same,co-staining with Fas-specific antibody in liver and white adipose tissue sections,[5],the stained sites coincided
same,damage to the liver tissue (histological analysis),[6],inhibited
same,size of the liver tissue,[6]; [9],smaller
same,weight of the liver tissue,[6]; [9],lighter
same,binding to Jurkat cells (Alexa647 signal),[7],bound to Jurkat cells at similar levels
same,tissue delivery after intravenous injection,"[8]; intravenous, 24 and 48 hours",specifically delivered to the liver tissue and white adipose tissue
same,time from which peptide was delivered to the liver tissue after intravenous injection,[8]; [10],12 h
same,time until which peptide remained in the liver tissue after intravenous injection,[8]; [10],48 h
same,time remaining in the liver tissue after subcutaneous injection,[8]; subcutaneous,≥ 48 h
same,tissue delivery after subcutaneous injection,"[8]; subcutaneous, compared to CtrFBP, 24 and 48 hours",specifically delivered to the liver tissue
